Measured values as given in patent US20260216242A1 (ALMAC DISCOVERY, published 2026).
Residue numbers refer to the chain shown, from its start. In names and notes the source's numbering stands.

T1: human ALPI (intestinal alkaline phosphatase) expressed on the surface of CHO cells (human, UniProt P09923 20-503)
T1 sequence (looked up): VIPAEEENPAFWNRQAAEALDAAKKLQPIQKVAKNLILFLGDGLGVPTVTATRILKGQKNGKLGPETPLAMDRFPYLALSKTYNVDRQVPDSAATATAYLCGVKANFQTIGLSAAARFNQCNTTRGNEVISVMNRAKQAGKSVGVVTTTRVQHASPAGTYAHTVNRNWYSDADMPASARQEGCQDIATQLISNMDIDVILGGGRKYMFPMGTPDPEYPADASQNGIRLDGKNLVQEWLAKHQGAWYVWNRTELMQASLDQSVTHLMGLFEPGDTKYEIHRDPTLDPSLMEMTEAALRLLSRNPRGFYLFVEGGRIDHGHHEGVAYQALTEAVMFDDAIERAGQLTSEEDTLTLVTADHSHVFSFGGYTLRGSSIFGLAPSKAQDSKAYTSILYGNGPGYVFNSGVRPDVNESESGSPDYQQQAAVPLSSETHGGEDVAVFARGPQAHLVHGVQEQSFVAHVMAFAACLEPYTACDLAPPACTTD

T2: human ALPL (tissue non-specific alkaline phosphatase) expressed on the surface of CHO cells (human, UniProt P05186 18-501)
T2 sequence (looked up): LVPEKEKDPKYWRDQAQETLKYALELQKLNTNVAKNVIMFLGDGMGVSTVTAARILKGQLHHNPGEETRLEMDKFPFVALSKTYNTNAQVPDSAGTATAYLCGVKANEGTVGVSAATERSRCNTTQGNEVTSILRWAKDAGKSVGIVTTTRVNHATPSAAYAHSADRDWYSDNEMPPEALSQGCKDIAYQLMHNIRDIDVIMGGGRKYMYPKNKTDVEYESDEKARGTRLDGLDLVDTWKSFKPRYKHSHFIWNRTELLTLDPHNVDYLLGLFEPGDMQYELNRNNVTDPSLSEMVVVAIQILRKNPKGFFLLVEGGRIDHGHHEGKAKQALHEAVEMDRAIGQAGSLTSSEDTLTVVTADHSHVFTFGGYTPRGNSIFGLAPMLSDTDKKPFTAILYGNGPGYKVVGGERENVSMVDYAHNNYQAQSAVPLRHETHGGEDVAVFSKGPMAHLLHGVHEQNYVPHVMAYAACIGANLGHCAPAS

B1: A06 E06-hFc (S239/442C T366Y/Y407T), [G4S]3 linker, MC-vc-PAB-MMAE conjugate, #639 (Fc fusion, DAR 4)
chain 1: QVHLVESGGGLVQAGGSLRLSCAASGRTFLSMGWFRQAPGKEREFVAAISWTGGSTGYADSVKGRFTISRESDKETMYLQMNSLKPEDTAVYYCAARGDVYYGGDDATRYKYWGQGTQVTVSSGGGGSGGGGSGGGGSEPKSSDKTHTCPPCPAPELLGGPCVFLFPPKPKDTLMISRTPEVTCVVVDVSHEDPEVKFNWYVDGVEVHNAKTKPREEQYNSTYRVVSVLTVLHQDWLNGKEYKCKVSNKALPAPIEKTISKAKGQPREPQVYTLPPSRDELTKNQVSLYCLVKGFYPSDIAVEWESNGQPENNYKTTPPVLDSDGSFFLYSKLTVDKSRWQQGNVFSCSVMHEALHNHYTQKSLCLSPGK
chain 2: QVHLVESGGGLVQAGGSLRLSCAASRRSFSEYAMGWFRQAPGKEREFVAAIGWSGVIEYADSVKGRFTISRDNAKDTVYLQMNSLKPEDTAVYYCAAGLGIRVVSQTPAYWGQGTQVTVSSGGGGSGGGGSGGGGSEPKSSDKTHTCPPCPAPELLGGPCVFLFPPKPKDTLMISRTPEVTCVVVDVSHEDPEVKFNWYVDGVEVHNAKTKPREEQYNSTYRVVSVLTVLHQDWLNGKEYKCKVSNKALPAPIEKTISKAKGQPREPQVYTLPPSRDELTKNQVSLTCLVKGFYPSDIAVEWESNGQPENNYKTTPPVLDSDGSFFLTSKLTVDKSRWQQGNVFSCSVMHEALHNHYTQKSLCLSPGK
modifications: MC-vc-PAB-MMAE on Cys of S239C and S442C (EU numbering)
notes: Biparatopic knob-into-hole VHH-hFc heterodimer, DAR 4; The assignment of T366Y to the first named VHH and Y407T to the second follows the order of the name; No paragraph spells out this pair; also called A06-E06 hFc-vcPAB-MMAE; A06-E06hFc-vc-MMAE
B2: A06 E10-hFc (S239/442C T366Y/Y407T), [G4S]3 linker, MC-vc-PAB-MMAE conjugate, #664 (Fc fusion, DAR 4)
chain 1: B1 chain 1
chain 2: QVQLVESGGGLVQAGGSLRLSCAVSGRALSDYNIGWFRQAPGKEREFVARKTWDGSSTRYDDSVKGRFTVSIEDAKNTAYLQMSSLKTEDTAVYYCAAGRYSRARGWEYDYWGQGTQVTVSSGGGGSGGGGSGGGGSEPKSSDKTHTCPPCPAPELLGGPCVFLFPPKPKDTLMISRTPEVTCVVVDVSHEDPEVKFNWYVDGVEVHNAKTKPREEQYNSTYRVVSVLTVLHQDWLNGKEYKCKVSNKALPAPIEKTISKAKGQPREPQVYTLPPSRDELTKNQVSLTCLVKGFYPSDIAVEWESNGQPENNYKTTPPVLDSDGSFFLTSKLTVDKSRWQQGNVFSCSVMHEALHNHYTQKSLCLSPGK
modifications: MC-vc-PAB-MMAE on Cys of S239C and S442C (EU numbering)
notes: Biparatopic knob-into-hole VHH-hFc heterodimer, DAR 4; The assignment of T366Y to the first named VHH and Y407T to the second follows the order of the name; No paragraph spells out this pair; also called A06-E10 hFc-vcPAB-MMAE; A06-E10hFc-vc-MMAE
B3: A06 F05-hFc (S239/442C T366Y/Y407T), [G4S]3 linker, MC-vc-PAB-MMAE conjugate, #665 (Fc fusion, DAR 4)
chain 1: B1 chain 1
chain 2: B2 chain 2 with V24A, L29F, S30G, K51R, E73D, D74N, S84N, A104V
modifications: MC-vc-PAB-MMAE on Cys of S239C and S442C (EU numbering)
notes: Biparatopic knob-into-hole VHH-hFc heterodimer, DAR 4; also called A06-F05 hFc-vcPAB-MMAE; A06-F05 hFc-vc-MMAE
B4: A06 E06-hFc (S239/442C T366Y/Y407T), [G4S]1 linker, MC-vc-PAB-MMAE conjugate, #710 (Fc fusion, DAR 4)
chain 1: QVHLVESGGGLVQAGGSLRLSCAASGRTFLSMGWFRQAPGKEREFVAAISWTGGSTGYADSVKGRFTISRESDKETMYLQMNSLKPEDTAVYYCAARGDVYYGGDDATRYKYWGQGTQVTVSSGGGGSEPKSSDKTHTCPPCPAPELLGGPCVFLFPPKPKDTLMISRTPEVTCVVVDVSHEDPEVKFNWYVDGVEVHNAKTKPREEQYNSTYRVVSVLTVLHQDWLNGKEYKCKVSNKALPAPIEKTISKAKGQPREPQVYTLPPSRDELTKNQVSLYCLVKGFYPSDIAVEWESNGQPENNYKTTPPVLDSDGSFFLYSKLTVDKSRWQQGNVFSCSVMHEALHNHYTQKSLCLSPGK
chain 2: QVHLVESGGGLVQAGGSLRLSCAASRRSFSEYAMGWFRQAPGKEREFVAAIGWSGVIEYADSVKGRFTISRDNAKDTVYLQMNSLKPEDTAVYYCAAGLGIRVVSQTPAYWGQGTQVTVSSGGGGSEPKSSDKTHTCPPCPAPELLGGPCVFLFPPKPKDTLMISRTPEVTCVVVDVSHEDPEVKFNWYVDGVEVHNAKTKPREEQYNSTYRVVSVLTVLHQDWLNGKEYKCKVSNKALPAPIEKTISKAKGQPREPQVYTLPPSRDELTKNQVSLTCLVKGFYPSDIAVEWESNGQPENNYKTTPPVLDSDGSFFLTSKLTVDKSRWQQGNVFSCSVMHEALHNHYTQKSLCLSPGK
modifications: MC-vc-PAB-MMAE on Cys of S239C and S442C (EU numbering)
notes: Biparatopic knob-into-hole VHH-hFc heterodimer, DAR 4; The assignment of T366Y to the first named VHH and Y407T to the second follows the order of the name; No paragraph spells out this pair; also called A06-E06-hFc-vcPAB-MMAE; A06-E06 hFc-vc-MMAE
B5: A06 E10-hFc (S239/442C T366Y/Y407T), [G4S]1 linker, MC-vc-PAB-MMAE conjugate, #711 (Fc fusion, DAR 4)
chain 1: B4 chain 1
chain 2: QVQLVESGGGLVQAGGSLRLSCAVSGRALSDYNIGWFRQAPGKEREFVARKTWDGSSTRYDDSVKGRFTVSIEDAKNTAYLQMSSLKTEDTAVYYCAAGRYSRARGWEYDYWGQGTQVTVSSGGGGSEPKSSDKTHTCPPCPAPELLGGPCVFLFPPKPKDTLMISRTPEVTCVVVDVSHEDPEVKFNWYVDGVEVHNAKTKPREEQYNSTYRVVSVLTVLHQDWLNGKEYKCKVSNKALPAPIEKTISKAKGQPREPQVYTLPPSRDELTKNQVSLTCLVKGFYPSDIAVEWESNGQPENNYKTTPPVLDSDGSFFLTSKLTVDKSRWQQGNVFSCSVMHEALHNHYTQKSLCLSPGK
modifications: MC-vc-PAB-MMAE on Cys of S239C and S442C (EU numbering)
notes: Biparatopic knob-into-hole VHH-hFc heterodimer, DAR 4; The assignment of T366Y to the first named VHH and Y407T to the second follows the order of the name; No paragraph spells out this pair; also called A06-E10-hFc-vcPAB-MMAE; A06-E10 hFc-vc-MMAE
B6: A06 F05-hFc (S239/442C T366Y/Y407T), [G4S]1 linker, MC-vc-PAB-MMAE conjugate, #712 (Fc fusion, DAR 4)
chain 1: B4 chain 1
chain 2: B5 chain 2 with V24A, L29F, S30G, K51R, E73D, D74N, S84N, A104V
modifications: MC-vc-PAB-MMAE on Cys of S239C and S442C (EU numbering)
notes: also called A06-F05-hFc-vcPAB-MMAE; A06-F05 hFc-vc-MMAE

Biological target: T3, human ALPPL2 (alkaline phosphatase, germ cell type) expressed on the surface of CHO cells (human, UniProt P10696 20-503)
Experiment: cell-based or functional assay

T3 sequence (P10696 20-503): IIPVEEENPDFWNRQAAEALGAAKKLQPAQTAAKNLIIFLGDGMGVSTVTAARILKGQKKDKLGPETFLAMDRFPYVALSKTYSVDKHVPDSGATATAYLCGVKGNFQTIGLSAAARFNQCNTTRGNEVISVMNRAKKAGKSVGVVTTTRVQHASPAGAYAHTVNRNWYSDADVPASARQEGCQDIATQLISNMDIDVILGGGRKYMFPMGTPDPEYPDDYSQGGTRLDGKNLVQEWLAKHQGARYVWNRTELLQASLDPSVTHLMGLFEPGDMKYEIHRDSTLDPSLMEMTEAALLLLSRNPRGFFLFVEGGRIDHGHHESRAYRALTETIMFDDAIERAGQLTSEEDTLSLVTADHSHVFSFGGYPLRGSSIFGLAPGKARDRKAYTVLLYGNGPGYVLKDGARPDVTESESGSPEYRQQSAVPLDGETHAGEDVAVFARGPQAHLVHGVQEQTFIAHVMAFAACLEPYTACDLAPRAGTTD

Binder | IC50 at 96 h, cell-killing of CHO-ALPPL2 cells [nM]
B1 | 8.6
B2 | 7.3
B3 | 7.9
B4 | 18.1
B5 | 14.1
B6 | 14.8

Biological target: T1, human ALPI (intestinal alkaline …)
Experiment: cell-based or functional assay

Binder | IC50 at 96 h, cell-killing of CHO-ALPI cells [nM] | IC50 at 96 h, cell-killing of CHO-ALPI cells (estimated from data extrapolation) [nM]
B1 | > 1000 | 
B2 | > 1000 | 
B3 | > 1000 | 
B4 |  | ~846
B5 |  | ~673
B6 |  | ~776

Biological target: T2, human ALPL (tissue non-specific …)
Experiment: cell-based or functional assay

Binder | IC50 at 96 h, cell-killing of CHO-ALPL cells [nM] | IC50 at 96 h, cell-killing of CHO-ALPL cells (estimated from data extrapolation) [nM]
B1 | > 1000 | 
B2 | > 1000 | 
B3 | > 1000 | 
B4 |  | ~699
B5 |  | ~597
B6 |  | ~551

Biological target: T2, human ALPL (tissue non-specific …)
Experiment: flow cytometry, CHO-ALPL cells

Binder | binding result
B1 | no binding (tested: 350 nM (highest concentration))
B2 | no binding (tested: 350 nM (highest concentration))
B3 | no binding (tested: 350 nM (highest concentration))
B4 | no binding (tested: 350 nM (highest concentration))
B5 | no binding (tested: 350 nM (highest concentration))
B6 | no binding (tested: 350 nM (highest concentration))

Biological target: T1, human ALPI (intestinal alkaline …)
Experiment: flow cytometry on CHO-ALPI cells

Binder | MFI on CHO-ALPI cells at 350 nM as percent of MFI on CHO-ALPP cells (KDapp not-determinable) [%]
B1 | ≤ 1
B2 | ≤ 1
B3 | ≤ 1
B4 | ≤ 1
B5 | ≤ 1
B6 | ≤ 1

Biological target: T4, human ALPP (alkaline phosphatase, placental type) expressed on the surface of CHO cells (human, UniProt P05187 23-506)
T4 construct: also called CHO-ALPP; hALPP
Experiment: flow cytometry on CHO-ALPP cells, apparent KD (KDapp)
Description: (§1) Biparatopic VHH-hFc drug conjugates were assessed for human ALPP, ALPPL2, ALPI and ALPL cell-surface binding by flow cytometry. Binders were screened on CHO cells stably expressing human ALPP, ALPPL2, ALPI or ALPL.
(§2) Cell surface binding of test agents to hALPP isoforms was characterized in four CHO-ALPP isoform transfectant cell lines (CHO-ALPP, CHO-ALPPL2, CHO-ALPI and CHO-ALPL) and the resulting KDapp values determined. Adherent cells were detached from tissue culture flasks by incubating with 0.1% EDTA/PBS solution at 37° C. for […] or until cells detached easily. Cells were re-suspended in ice-cold PBS/2% FCS in 15 ml tubes and centrifuged at 1700 rpm for 5 mins at 4° C. Supernatant was removed and the cell pellet re-suspended in PBS/2% FCS. […] Cells were incubated with 100 μl of test agents at a range of concentrations, plus controls for 1 hr on ice. The sample plate was centrifuged at 1700 rpm for 5 mins at 4° C. The supernatant was removed, and a wash performed by re-suspending the cell pellets in 0.25 mL of ice-cold PBS/2% FCS using a multichannel pipette. Samples were again centrifuged at 1700 rpm for 5 min at 4° C. Supernatant was removed and two further washes performed as described. After the final wash and centrifugation step, excess liquid was removed by blotting the plate on tissue paper. Binding of VHH-hFc agents was determined by adding 100 μl of Fitc-anti-human Ab (ThermoFisher) and incubating for 30 mins on ice in the dark. Wash steps were performed as described previously. All cell pellets were finally re-suspended in 0.28 ml of ice-cold PBS/2% FCS and left on ice in the dark prior to analysis on a Merck-Millipore Guava EasyCyte HT or Thermo Fisher Attune N×T flow cytometer.

Binder | Kd [nM]
B1 | 8.5
B2 | 8.5
B3 | 9.8
B4 | 11
B5 | 13.4
B6 | 10.6

Biological target: T3, human ALPPL2 (alkaline phosphatase, …)
Experiment: flow cytometry on CHO-ALPPL2 cells, apparent KD (KDapp)
Description: as §1, §2

Binder | Kd [nM]
B1 | 4.2
B2 | 3.7
B3 | 4.9
B4 | 5.6
B5 | 7.6
B6 | 5.7
